According to PMC9399999 (Nature Communications, 2022):

Molecular target: prototypic SARS-CoV-2 RBD (residues 319-541) (SARS-CoV-2, prototype (GISAID …, UniProt P0DTC2))
Experiment: SPR
Details: both partners purified

B1: S304 antibody (IgG1) (antibody, V domains shown)
VH: EVQLVESGGGLVQPGGSLRLSCAASGFTFSSYDMHWVRQTTGKGLEWVSTIGTAGDTYYPDSVKGRFTISREDAKNSLYLQMNSLRAGDTAVYYCARGDSSGYYYYFDYWGQGTLLTVSS
VL: DIQMTQSPSSLSAAVGDRVTITCRASQSIGSYLNWYQQKPGKAPKLLIYAASSLQSGVPSRFSGSGSGTDFTLTISSLQPEDFAIYYCQQSYVSPTYTFGPGTKVDIK
notes: IgG1
B1 was tested, and the Kd was 5.61 nM.
